T1: human LRRC15 (full-length, on cells) (human, UniProt Q8TF66 22-581)
T1 construct: also called hLRRC15; endogenous LRRC15 of Hs294T
T1 sequence: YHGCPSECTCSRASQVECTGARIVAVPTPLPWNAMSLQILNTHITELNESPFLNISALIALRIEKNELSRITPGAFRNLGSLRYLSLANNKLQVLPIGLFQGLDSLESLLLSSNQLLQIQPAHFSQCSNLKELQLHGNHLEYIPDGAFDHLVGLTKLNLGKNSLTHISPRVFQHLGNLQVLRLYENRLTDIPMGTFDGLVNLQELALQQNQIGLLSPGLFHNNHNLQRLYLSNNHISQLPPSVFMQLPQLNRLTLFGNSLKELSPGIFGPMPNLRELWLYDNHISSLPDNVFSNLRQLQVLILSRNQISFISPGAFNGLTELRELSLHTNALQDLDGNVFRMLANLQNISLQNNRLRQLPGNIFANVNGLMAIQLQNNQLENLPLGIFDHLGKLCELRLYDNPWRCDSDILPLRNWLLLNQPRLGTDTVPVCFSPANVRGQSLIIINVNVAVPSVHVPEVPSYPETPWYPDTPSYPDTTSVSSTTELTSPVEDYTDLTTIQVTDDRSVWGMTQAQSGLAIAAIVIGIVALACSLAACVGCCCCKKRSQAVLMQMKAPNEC

T2: cynomolgus monkey LRRC15 extracellular domain expressed on HEK293α (pDisplay-cynoLRRC15 ECD) (cynomolgus monkey, UniProt Q8TF66 22-538 (human entry))
T2 construct: vector-derived parts not described
T2 chain: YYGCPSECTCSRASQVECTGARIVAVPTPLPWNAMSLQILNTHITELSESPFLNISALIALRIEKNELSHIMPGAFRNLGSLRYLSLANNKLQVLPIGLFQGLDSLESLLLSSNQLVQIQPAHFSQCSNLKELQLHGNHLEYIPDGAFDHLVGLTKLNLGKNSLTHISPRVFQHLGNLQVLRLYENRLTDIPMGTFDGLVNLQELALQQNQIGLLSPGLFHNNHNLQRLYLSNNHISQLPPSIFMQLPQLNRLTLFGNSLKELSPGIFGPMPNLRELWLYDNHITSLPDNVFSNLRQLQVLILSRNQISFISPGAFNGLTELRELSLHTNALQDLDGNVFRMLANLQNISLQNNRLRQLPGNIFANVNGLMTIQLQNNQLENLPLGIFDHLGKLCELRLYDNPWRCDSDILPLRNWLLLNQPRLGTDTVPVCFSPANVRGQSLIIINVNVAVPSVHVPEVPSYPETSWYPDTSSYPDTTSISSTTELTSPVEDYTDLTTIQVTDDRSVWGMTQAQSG

T3: human LRRC15 extracellular domain expressed on HEK293α (pDisplay-hLRRC15 ECD) (human, UniProt Q8TF66 22-538)
T3 construct: also called WT; human LRRC15 wild-type
T3 sequence: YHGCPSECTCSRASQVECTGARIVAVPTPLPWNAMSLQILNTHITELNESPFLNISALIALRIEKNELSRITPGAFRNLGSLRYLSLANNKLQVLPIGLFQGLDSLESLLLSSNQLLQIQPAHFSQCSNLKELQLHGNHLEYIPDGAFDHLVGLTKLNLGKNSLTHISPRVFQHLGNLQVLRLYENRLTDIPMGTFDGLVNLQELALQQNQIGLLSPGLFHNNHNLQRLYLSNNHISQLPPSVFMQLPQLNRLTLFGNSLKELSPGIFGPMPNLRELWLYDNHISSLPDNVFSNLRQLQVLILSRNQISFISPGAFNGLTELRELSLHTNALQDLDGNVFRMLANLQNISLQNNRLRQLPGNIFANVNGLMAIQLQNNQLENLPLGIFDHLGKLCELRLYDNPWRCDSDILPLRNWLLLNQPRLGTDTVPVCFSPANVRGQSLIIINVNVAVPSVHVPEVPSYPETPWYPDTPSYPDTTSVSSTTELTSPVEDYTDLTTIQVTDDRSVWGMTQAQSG

T4: human LRRC15-His protein (human, UniProt Q8TF66 22-538)
T4 construct: Recombinant, expressed in mammalian cells; also called human LRRC15 antigen; hLRRC15-His
T4 sequence: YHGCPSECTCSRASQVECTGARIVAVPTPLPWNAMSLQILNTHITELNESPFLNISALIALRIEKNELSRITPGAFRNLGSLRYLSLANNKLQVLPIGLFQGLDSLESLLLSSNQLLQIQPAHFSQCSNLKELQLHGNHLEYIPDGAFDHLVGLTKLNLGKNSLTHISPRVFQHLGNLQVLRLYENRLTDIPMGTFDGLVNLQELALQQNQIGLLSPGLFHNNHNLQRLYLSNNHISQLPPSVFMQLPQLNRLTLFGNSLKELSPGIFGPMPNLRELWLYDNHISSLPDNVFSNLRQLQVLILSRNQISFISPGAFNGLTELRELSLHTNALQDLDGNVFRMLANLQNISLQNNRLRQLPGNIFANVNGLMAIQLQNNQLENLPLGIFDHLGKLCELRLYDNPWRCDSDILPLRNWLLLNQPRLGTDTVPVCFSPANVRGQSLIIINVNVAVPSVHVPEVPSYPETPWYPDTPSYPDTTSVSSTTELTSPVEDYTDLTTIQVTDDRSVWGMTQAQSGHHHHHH


Columns and labels:
[1] = target: T1, human LRRC15 (full-length, on cells); assay: Cell-ELISA, hybridoma supernatant on HEK293α transfected with pcDNA3.1-hLRRC15
[2] = target: T2, cynomolgus monkey LRRC15 extracellular …; assay: flow cytometry, transfected HEK293α, 10 µg/mL
[3] = target: T3, human LRRC15 extracellular domain …; assay: flow cytometry, HEK293α expressing WT human LRRC15 ECD
[4] = target: T1, human LRRC15 (full-length, on cells); assay: flow cytometry, endogenous LRRC15 on human melanoma line Hs294T
human LRRC15-His protein = target: T4, human LRRC15-His protein; assay: SPR, Biacore T200; antibody captured by anti-human IgG (Fc), human LRRC15-His as analyte, 1:1 model
[5] = target: T3, human LRRC15 extracellular domain …; assay: flow cytometry, transfected HEK293α, 10 µg/mL

| Binder | binding result [1] | binding result [2] | binding result [3] | binding result [4] | Kd (human LRRC15-His protein) [nM] | binding result [5] |
| --- | --- | --- | --- | --- | --- | --- |
| rR024 antibody (antibody, rat IgG2b, V domains shown, Rat monoclonal antibody from hybridoma culture supernatant; rat IgG2b, kappa light chain; also called clone rR024) VH: EVQLVESNGALVQPGRSLKLSCAASGFTFRDYYMAWVRQAPSKGLEWVASIGFDESRTYYRDSVKGRFTISRDDVKSTLYLQLDSLRSEDTATYYCTRHGVSYYSGDNWFAYWGQGALVIVSS VL: DIVMTQSPSSLAVSAGETVIINCKSSQGLLYSGDQKNYLAWYQQKPGQSPKLLIYWASTRQSGVPDRFIGSGSGTDFTLTISSVQGEDLAIYYCQQYYDPPYTFGAGTKLELKR | binds | – | – | – | – | – |
| H02L01 antibody (antibody, human IgG1, kappa, L234A L235A, V domains shown, Humanized anti-LRRC15 antibody, human IgG1 / kappa; also called hR024 (hR024 H02 + hR024 L01)) VH: EVQLVESGGGLVQPGGSLRLSCAASGFTFRDYYMAWVRQAPGKGLEWVSSIGFDESRTYYADSVKGRFTISRDDSKNTLYLQMNSLRAEDTAVYYCARHGVSYYSGDNWFAYWGQGTLVTVSS VL: DIQMTQSPSSLSASVGDRVTITCKSSQGLLYSGDQKNYLAWYQQKPGKAPKLLIYWASTRQSGVPSRFSGSGSGTDFTLTISSLQPEDFATYYCQQYYDPPYTFGQGTKVEIKR | – | binds | binds | binds | – | – |
| H02L01-V1 antibody (antibody, human IgG1, kappa, L234A L235A, V domains shown, Humanized anti-LRRC15 antibody, human IgG1 / kappa; also called hR024 (hR024 H02-V1 + hR024 L01)) VH: EVQLVESGGGLVQPGGSLRLSCAASGFTFRDYYMAWVRQAPGKGLEWVSSIGFDESRTYYADSVKGRFTISRDDSKNTLYLQMNSLRAEDTAVYYCARHGVSKYSGDNWFAYWGQGTLVTVSS VL: DIQMTQSPSSLSASVGDRVTITCKSSQGLLYSGDQKNYLAWYQQKPGKAPKLLIYWASTRQSGVPSRFSGSGSGTDFTLTISSLQPEDFATYYCQQYYDPPYTFGQGTKVEIKR | – | binds | – | – | 59.9 | – |
| H02L01-V2 antibody (antibody, human IgG1, kappa, L234A L235A, V domains shown, Humanized anti-LRRC15 antibody, human IgG1 / kappa; also called hR024 (hR024 H02-V2 + hR024 L01)) VH: EVQLVESGGGLVQPGGSLRLSCAASGFTFRDYYMAWVRQAPGKGLEWVSSIGFDESRTYYADSVKGRFTISRDDSKNTLYLQMNSLRAEDTAVYYCARHGVSRYSGDNWFAYWGQGTLVTVSS VL: DIQMTQSPSSLSASVGDRVTITCKSSQGLLYSGDQKNYLAWYQQKPGKAPKLLIYWASTRQSGVPSRFSGSGSGTDFTLTISSLQPEDFATYYCQQYYDPPYTFGQGTKVEIKR | – | binds | – | binds | – | binds |
| H09L03 antibody (antibody, human IgG1, kappa, L234A L235A, V domains shown, Humanized anti-LRRC15 antibody, human IgG1 / kappa; also called hR024 (hR024 H09 + hR024 L03)) VH: EVQLVESGGGLVQPGGSLRLSCAASGFTFRDYYMAWVRQAPGKGLEWVASIGFDESRTYYADSVKGRFTISRDDSKSTLYLQMNSLRAEDTAVYYCTRHGVSYYSGDNWFAYWGQGTLVTVSS VL: DIQMTQSPSSLSASVGDRVTITCKSSQGLLYSGDQKNYLAWYQQKPGKSPKLLIYWASTRQSGVPDRFSGSGSGTDFTLTISSLQPEDFATYYCQQYYDPPYTFGQGTKVEIKR | – | binds | – | binds | – | binds |
